Experimental data: patent US10966923
Blank lines part the entries; values can stand above or below the molecule they belong to.

What was measured:
VEGF = VEGF (UniProt P15692); assay: VEGF incubated with particles, particulate spun out, free VEGF in the supernatant measured by ELISA
[1] = target: AB160 (nanoparticle of albumin-bound paclitaxel and bevacizumab, ratio about 10:4, average particle size 160 nm) (UniProt P02768); assay: flow cytometry of particles stained with goat anti-mouse IgG and PE
[2] = target: Abraxane (albumin-bound paclitaxel) (UniProt P02768); assay: flow cytometry of particles stained with goat anti-mouse IgG and PE; ABX alone as comparison
[3] = target: T1, Abraxane (albumin-bound paclitaxel) (UniProt P02768 25-609); assay: VEGF incubated with particles, particulate spun out, free VEGF in the supernatant measured by ELISA
T1 construct: also called ABX; Paclitaxel Albumin-stabilized Nanoparticle Formulation
Method: The VEGF was incubated with the nanoparticles for 2 hours at room temperature. The suspension was spun at 6000 rpm for 15 minutes, supernatants were collected and free VEGF was measured by ELISA. Briefly, ELISA plates were coated with capture antibody overnight at 4° C. Plates were washed, blocked and standards and samples were added. After washing, detection antibody was added and plates were developed with substrate (R and D Systems, Minneapolis, Minn.). […] The concentration of unbound VEGF was determined with a standard curve from 0 to 2000 pg/ml.

- % VEGF unbound (VEGF): < 10%
Molecule: AB160 (nanoparticle of albumin-bound paclitaxel and bevacizumab, ratio about 10:4, average particle size 160 nm) (from UniProt P02768 25-609)

- % positive [1]: 41.2%
- % positive [2]: 6.7%
Molecule: goat anti-mouse IgG (antibody)

- binding result [3]: no binding (tested: 2000 pg/ml VEGF)
B1: VEGF (ligand, UniProt P15692-4 27-191, looked up)
chain: APMAEGGGQNHHEVVKFMDVYQRSYCHPIETLVDIFQEYPDEIEYIFKPSCVPLMRCGGCCNDEGLECVPTEESNITMQIMRIKPHQGQHIGEMSFLQHNKCECRPKKDRARQENPCGPCSERRKHLFVQDPQTCKCSCKNTDSRCKARQLELNERTCRCDKPRR
notes: Soluble VEGF
